{
  "source": "paper PMC3742642",
  "about": "(Structure (London, England : 1993), 2013)",
  "proteins": {"B1": {"name": "bacteriophage ϕ6 capsid protein P1, full length, C-terminal His6-tag (natural protein, UniProt P11126 1-769, looked up)", "chain": "MFNLKVKDLNGSARGLTQAFAIGELKNQLSVGALQLPLQFTRTFSASMTSELLWEVGKGNIDPVMYARLFFQYAQAGGALSVDELVNQFTEYHQSTACNPEIWRKLTAYITGSSNRAIKADAVGKVPPTAILEQLRTLAPSEHELFHHITTDFVCHVLSPLGFILPDAAYVYRVGRTATYPNFYALVDCVRASDLRRMLTALSSVDSKMLQATFKAKGALAPALISQHLANAATTAFERSRGNFDANAVVSSVLTILGRLWSPSTPKELDPSARLRNTNGIDQLRSNLALFIAYQDMVKQRGRAEVIFSDEELSSTIIPWFIEAMSEVSPFKLRPINETTSYIGQTSAIDHMGQPSHVVVYEDWQFAKEITAFTPVKLANNSNQRFLDVEPGISDRMSATLAPIGNTFAVSAFVKNRTAVYEAVSQRGTVNSNGAEMTLGFPSVVERDYALDRDPMVAIAALRTGIVDESLEARASNDLKRSMFNYYAAVMHYAVAHNPEVVVSEHQGVAAEQGSLYLVWNVRTELRIPVGYNAIEGGSIRTPEPLEAIAYNKPIQPSEVLQAKVLDLANHTTSIHIWPWHEASTEFAYEDAYSVTIRNKRYTAEVKEFELLGLGQRRERVRILKPTVAHAIIQMWYSWFVEDDRTLAAARRTSRDDAEKLAIDGRRMQNAVTLLRKIEMIGTTGIGASAVHLAQSRIVDQMAGRGLIDDSSDLHVGINRHRIRIWAGLAVLQMMGLLSRSEAEALTKVLGDSNALGMVVATTDIDPSL"}, "B2": {"name": "bacteriophage ϕ6 capsid protein P1, wild type, in P1247 procapsids (natural protein)", "chain": "FNLKVKDLNGSARGLTQAFAIGELKNQLSVGALQLPLQFTRTFSASMTSELLWEVGKGNIDPVMYARLFFQYAQAGGALSVDELVNQFTEYHQSTACNPEIWRKLTAYITGSSNRAIKADAVGKVPPTAILEQLRTLAPSEHELFHHITTDFVCHVLSPLGFILPDAAYVYRVGRTATYPNFYALVDCVRASDLRRMLTALSSVDSKMLQATFKAKGALAPALISQHLANAATTAFERSRGNFDANAVVSSVLTILGRLWSPSTPKELDPSARLRNTNGIDQLRSNLALFIAYQDMVKQRGRAEVIFSDEELSSTIIPWFIEAMSEVSPFKLRPINETTSYIGQTSAIDHMGQPSHVVVYEDWQFAKEITAFTPVKLANNSNQRFLDVEPGISDRMSATLAPIGNTFAVSAFVKNRTAVYEAVSQRGTVNSNGAEMTLGFPSVVERDYALDRDPMVAIAALRTGIVDESLEARASNDLKRSMFNYYAAVMHYAVAHNPEVVVSEHQGVAAEQGSLYLVWNVRTELRIPVGYNAIEGGSIRTPEPLEAIAYNKPIQPSEVLQAKVLDLANHTTSIHIWPWHEASTEFAYEDAYSVTIRNKRYTAEVKEFELLGLGQRRERVRILKPTVAHAIIQMWYSWFVEDDRTLAAARRTSRDDAEKLAIDGRRMQNAVTLLRKIEMIGTTGIGASAVHLAQSRIVDQMAGRGLIDDSSDLHVGINRHRIRIWAGLAVLQMMGLLSRSEAEALTKVLGDSNALGMVVATTDIDPSL"}},
  "key": {"SEC": {"molecular_target": "the molecule itself", "assay": "SEC"}, "crystal structure": {"molecular_target": "the molecule itself", "assay": "crystal structure"}, "cryo-EM structure": {"molecular_target": "the molecule itself", "assay": "cryo-EM structure"}},
  "data": [
    {"protein": "B1", "values": [
      {"measurement": "stoichiometry N", "setting": "SEC", "result": 2},
      {"measurement": "stoichiometry N", "setting": "crystal structure", "result": 5}
    ]},
    {"protein": "B2", "values": [
      {"measurement": "stoichiometry N", "setting": "cryo-EM structure", "result": 120}
    ]}
  ]
}
